The record followed here is publication PMC10962640, ““Clickable” graphene nanoribbons for biosensor interfaces†”.

For data set [1], the target named is T1, Interleukin-6 (IL6) (human, UniProt P05231 30-212). The experiment in a line: DPV (electrochemical aptasensor); [Fe(CN)6]4- redox probe; Hill fit, coefficient fixed at 1; Aptamer on GNR-functionalized gold electrodes, [Fe(CN)6]4- redox probe; sensing buffer, pH and temperature not given in the material (aptamer clicked in PBS 1X). The note with it: protein: commercial.

Data set [2] addresses T1, Interleukin-6 (IL6). Description: EIS (electrochemical aptasensor); [Fe(CN)6]4- redox probe; phase shift; Hill fit, coefficient fixed at 1; Aptamer on GNR-functionalized gold electrodes, [Fe(CN)6]4- redox probe; sensing buffer, pH and temperature not given in the material (aptamer clicked in PBS 1X). The note with it: protein: commercial.

Broadly, the Kd is the equilibrium constant for the complex coming apart.

T1 sequence (P05231 30-212): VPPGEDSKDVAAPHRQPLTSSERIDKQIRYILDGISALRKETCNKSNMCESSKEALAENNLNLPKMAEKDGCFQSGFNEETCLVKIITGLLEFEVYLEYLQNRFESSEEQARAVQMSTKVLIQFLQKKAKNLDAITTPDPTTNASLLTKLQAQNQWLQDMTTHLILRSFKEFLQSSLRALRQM

B1: IL6 DNA aptamer (azide-modified) (ssDNA)
DNA: TTTTTTCTTCCAACGCTCGTATTGTCAGTCTTTAGT
modifications: 5' azide (/5AzideN/), clicked by CuAAC to alkyne graphene nanoribbons on gold electrode
As for B1, the Kd stood at 3.4 ± 0.4 nM in data set [1] and 10.4 ± 3.1 nM in data set [2].
